From patent US20190022241A1 (AbbVie / Abbott, published 2019) come the findings set out here.

Experiment [1] deals with T1, SEZ6 Sushi Domain 1 (amino acids 336-395) on yeast (human, UniProt Q53EL9 355-414).
T1 construct: yeast display
Put plainly: yeast display, flow cytometry.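 Note: antibody binding to individual SEZ6 domains displayed on yeast, measured by flow cytometry, antibody at 50 nM purified or hybridoma supernatant diluted 1:2, 90 min on ice.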

Another experiment deals with T2, human SEZ6L ECD-His (human, UniProt Q9BYH1 29-955).
T2 construct: whole entry named
T2 sequence: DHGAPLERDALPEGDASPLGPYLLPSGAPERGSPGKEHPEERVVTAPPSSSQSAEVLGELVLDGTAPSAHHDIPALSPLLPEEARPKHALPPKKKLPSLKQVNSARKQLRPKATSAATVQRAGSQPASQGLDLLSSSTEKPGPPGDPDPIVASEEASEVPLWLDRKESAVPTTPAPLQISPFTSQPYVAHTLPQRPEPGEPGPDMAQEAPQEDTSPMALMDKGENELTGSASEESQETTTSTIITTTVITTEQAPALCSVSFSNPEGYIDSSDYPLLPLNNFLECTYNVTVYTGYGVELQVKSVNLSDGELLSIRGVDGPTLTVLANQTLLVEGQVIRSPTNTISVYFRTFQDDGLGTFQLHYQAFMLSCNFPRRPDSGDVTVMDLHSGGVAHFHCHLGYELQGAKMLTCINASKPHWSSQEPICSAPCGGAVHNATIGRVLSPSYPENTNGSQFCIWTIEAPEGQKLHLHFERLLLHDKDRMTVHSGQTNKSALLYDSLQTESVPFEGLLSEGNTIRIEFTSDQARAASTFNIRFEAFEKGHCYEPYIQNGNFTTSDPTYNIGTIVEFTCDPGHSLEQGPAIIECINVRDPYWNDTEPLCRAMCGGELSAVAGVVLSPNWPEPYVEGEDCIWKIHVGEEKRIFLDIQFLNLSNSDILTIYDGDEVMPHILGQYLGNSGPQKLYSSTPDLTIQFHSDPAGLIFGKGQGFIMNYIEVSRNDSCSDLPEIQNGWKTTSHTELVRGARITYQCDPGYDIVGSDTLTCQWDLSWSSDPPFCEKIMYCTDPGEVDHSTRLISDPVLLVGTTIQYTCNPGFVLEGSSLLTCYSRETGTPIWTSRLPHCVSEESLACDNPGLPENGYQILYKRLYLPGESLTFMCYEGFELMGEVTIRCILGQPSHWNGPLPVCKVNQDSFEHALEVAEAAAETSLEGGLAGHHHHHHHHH
Put plainly: ELISA on plates coated with SEZ6L protein.

In another experiment the target is T3, human SEZ6L2 ECD-His (human, UniProt Q6UXD5 28-843).
T3 construct: whole entry named
T3 sequence (Q6UXD5 other isoform, or with tags, fused parts or gaps): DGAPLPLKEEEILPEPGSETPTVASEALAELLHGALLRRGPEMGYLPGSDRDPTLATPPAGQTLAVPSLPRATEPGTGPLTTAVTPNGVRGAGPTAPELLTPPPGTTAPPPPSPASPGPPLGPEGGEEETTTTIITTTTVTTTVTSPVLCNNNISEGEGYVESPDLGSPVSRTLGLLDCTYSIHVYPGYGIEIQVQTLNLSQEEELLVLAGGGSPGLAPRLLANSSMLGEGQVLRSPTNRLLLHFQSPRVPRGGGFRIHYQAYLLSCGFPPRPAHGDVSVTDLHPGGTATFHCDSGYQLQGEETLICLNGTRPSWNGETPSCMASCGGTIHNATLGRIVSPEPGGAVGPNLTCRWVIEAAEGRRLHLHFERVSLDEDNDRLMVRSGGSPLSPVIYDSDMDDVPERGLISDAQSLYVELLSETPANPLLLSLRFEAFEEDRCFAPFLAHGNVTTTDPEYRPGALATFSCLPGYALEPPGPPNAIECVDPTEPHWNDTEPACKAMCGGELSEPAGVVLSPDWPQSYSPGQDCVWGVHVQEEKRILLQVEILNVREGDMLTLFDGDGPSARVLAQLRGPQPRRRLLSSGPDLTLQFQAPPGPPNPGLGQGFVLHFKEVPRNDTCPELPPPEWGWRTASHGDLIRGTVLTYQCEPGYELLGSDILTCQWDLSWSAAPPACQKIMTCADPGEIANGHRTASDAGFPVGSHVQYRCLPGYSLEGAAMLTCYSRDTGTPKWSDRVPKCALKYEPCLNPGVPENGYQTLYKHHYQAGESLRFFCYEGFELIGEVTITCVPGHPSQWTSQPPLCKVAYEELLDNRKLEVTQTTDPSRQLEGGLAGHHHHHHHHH
Nature of the experiment: ELISA on plates coated with SEZ6L2 protein.

The target in experiment [2] is T4, SEZ6 N1 (amino acids 1-70) on yeast (human, UniProt Q53EL9 20-89).
T4 construct: yeast display
T4 sequence: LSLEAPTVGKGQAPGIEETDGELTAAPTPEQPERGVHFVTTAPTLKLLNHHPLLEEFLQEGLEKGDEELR
Put plainly: yeast display, flow cytometry.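 Note: antibody binding to individual SEZ6 domains displayed on yeast, measured by flow cytometry, antibody at 50 nM purified or hybridoma supernatant diluted 1:2, 90 min on ice.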

Experiment [3] deals with T5, mouse SEZ6 on Neuro2a cells (mouse, UniProt Q7TSK2 20-991).
T5 construct: endogenous on Neuro2a cells; also called murine SEZ6; mSEZ6
Put plainly: flow cytometry on Neuro2a cells expressing mouse SEZ6.

Experiment [4] has as its target T6, rat SEZ6 on RIN-m5F cells (rat, UniProt Q7TSK2 20-991 (mouse entry)).
T6 construct: endogenous on RIN-m5F cells; also called rSEZ6
T6 chain: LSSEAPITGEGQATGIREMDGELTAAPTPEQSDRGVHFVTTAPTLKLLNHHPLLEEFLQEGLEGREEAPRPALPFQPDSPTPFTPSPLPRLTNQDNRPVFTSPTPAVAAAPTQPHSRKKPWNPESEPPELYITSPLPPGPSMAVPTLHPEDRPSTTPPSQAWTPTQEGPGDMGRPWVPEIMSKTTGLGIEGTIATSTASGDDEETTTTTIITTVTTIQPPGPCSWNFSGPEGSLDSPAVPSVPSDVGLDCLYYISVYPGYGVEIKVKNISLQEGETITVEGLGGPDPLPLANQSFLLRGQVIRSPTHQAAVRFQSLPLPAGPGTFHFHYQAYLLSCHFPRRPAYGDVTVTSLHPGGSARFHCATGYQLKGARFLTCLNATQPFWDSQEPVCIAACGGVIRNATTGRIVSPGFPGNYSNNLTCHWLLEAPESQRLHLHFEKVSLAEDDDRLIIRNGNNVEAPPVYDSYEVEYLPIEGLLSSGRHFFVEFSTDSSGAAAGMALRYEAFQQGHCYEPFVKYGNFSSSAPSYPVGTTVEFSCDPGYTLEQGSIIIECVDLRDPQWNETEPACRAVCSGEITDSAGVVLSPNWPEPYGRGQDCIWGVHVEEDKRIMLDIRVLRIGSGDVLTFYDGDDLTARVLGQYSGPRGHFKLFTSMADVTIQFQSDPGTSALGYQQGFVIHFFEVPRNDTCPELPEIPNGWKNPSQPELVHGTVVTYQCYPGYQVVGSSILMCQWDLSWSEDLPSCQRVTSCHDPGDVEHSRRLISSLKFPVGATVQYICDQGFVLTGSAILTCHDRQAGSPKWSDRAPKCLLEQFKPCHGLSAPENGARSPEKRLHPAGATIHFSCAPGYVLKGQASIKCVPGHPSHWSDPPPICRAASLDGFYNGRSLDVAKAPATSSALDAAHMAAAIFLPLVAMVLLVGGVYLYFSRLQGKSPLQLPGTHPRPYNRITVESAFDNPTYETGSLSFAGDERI
Put plainly: flow cytometry on RIN-m5F cells expressing rat SEZ6, verified by BLI or SPR on rat SEZ6-His.

For experiment [5], the target named is T7, hSEZ6-ECD-His (human, UniProt Q53EL9 20-925).
T7 construct: the whole entry is named; also called recombinant SEZ6-His; human recombinant SEZ6-His
Put plainly: bio-layer interferometry (ForteBio RED) or surface plasmon resonance (Biacore 2000) on human SEZ6-His; the table does not say which; column Hu Affinity (Kd, nM).

The target in experiment [6] is T7, hSEZ6-ECD-His. Put plainly: SPR, Biacore 2000 (data not shown).

Changes are numbered by the printed parent chain.

B1: SC17.187 (antibody, V domains shown)
VH: EVHLQQSGPELVNPGSSVKISCKAAGYTFTDYNMDWVKQSHGKRLEWIGNIYPNNGGAGYNQNFKDKATLTVDKSSSTAYMELRSLTSEDSAVYYCARSITAAWFAYWGQGTLVTVSA
VL: DIKMTQSPSSMYASLGERVTLTCKASQDINSYLSWFQQKPGKSPETLIYRANRLIDGVPSRFSGSGSGQDYSLTISSLEYEDMGIYYCLQYDEFPPTFGGGTKLEIK
notes: murine mAb
As for B1, in experiment [1], the binding result is recorded as “binds”.

B2: SC17.4 (antibody, V domains shown)
VH: QIQLVQSGPELKKPGETVKISCKASGYTFTDYSMHWVKQAPGKGLKWLGWINTETGEPTYSEDFKGRFAFSLETSASTAYLQINNLKNEDTATYFCVKNKGWFAYWGQGTLVTVSA
VL: B1 VL with L21I, S34T, E45K, E79D, E93D, P96W
notes: murine mAb
With B2, the binding result is listed as “no binding (tested: 1 µg/mL)” with human SEZ6L ECD-His; “no binding (tested: 1 µg/mL)” with human SEZ6L2 ECD-His; “binds” in experiment [2]; “no binding (tested: 5 µg/mL)” in experiment [3]; “no binding (tested: 5 µg/mL)” in experiment [4].

B3: SC17.82 (antibody, V domains shown)
VH: EVQLQQSGPELVKPGASVKMSCKASGYTFTDSYMNWVKQSHGKSLEWIGRVNPNNGGASYNHKFKGKATLTVDKSLSTAYMRLNSLTSEDSAVYYCSRSGDLYYYAMDYWGQGTSVTVSS
VL: QIVLTQSPAIMSASLGEEITLTCSASSSVSYMHWYQQKSGTSPKLLIYSTSNLASGVPSRFSGSGSGTFYSLTISSVEAEDAADYYCHQWSSFTFGSGTKLEIK
notes: murine mAb
Take B3: the binding result in experiment [1] is recorded as “binds”.

B4: SC17.49 (antibody, V domains shown)
VH: QVQLQQSGAELVRPGASVTLSCKASGYTFTDYEMHWVKQTPVHGLEWIGGIDPETGGTAYNQKFKGKATLTADKSSSTAYMELRSLTSEDSAVYFCTRWFSYWGPGTLVTVSA
VL: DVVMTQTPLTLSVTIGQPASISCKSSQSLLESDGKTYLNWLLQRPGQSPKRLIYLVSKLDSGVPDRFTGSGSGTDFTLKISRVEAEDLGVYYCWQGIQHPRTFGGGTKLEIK
notes: murine mAb
As to B4, the binding result was “no binding (tested: 1 µg/mL)” with human SEZ6L ECD-His, “no binding (tested: 1 µg/mL)” with human SEZ6L2 ECD-His, “no binding (tested: 5 µg/mL)” in experiment [3] and “no binding (tested: 5 µg/mL)” in experiment [4]. The molecule also showed a dissociation constant (Kd) with hSEZ6-ECD-His [5] of 23.1 nM.

B5: SC17.200 (antibody, V domains shown)
VH: QVQLQQSGPELVKPGASVKISCKASGYAFSSSWINWVKQRPGQGLEWIGRIYPGEGDTNYSGNFEGKATLTADKSSTTAYMQLSSLTSVDSAVYFCTRGLVMDYWGQGTALTVSS
VL: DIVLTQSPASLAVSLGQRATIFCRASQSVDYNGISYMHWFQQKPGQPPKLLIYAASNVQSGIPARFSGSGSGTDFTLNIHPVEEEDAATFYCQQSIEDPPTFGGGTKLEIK
notes: murine mAb
Turning to B5, in experiment [1], the binding result was “binds”.

B6: hSC17.34 (antibody, human IgG1, V domains shown)
VH: QVQLVQSGAEVKKPGASVKVSCKASGYTFTDYNMDWVRQAPGQRLEWIGYIYPDNGGAGYNQKFKGRVTITVDTSASTAYMELSSLRSEDTAVYYCSRSITTAWFAYWGQGTLVTVSS
VL: DIQMTQSPSSLSASVGDRVTITCKASQDINSYLSWFQQKPGKAPKSLIYRANRLVDGVPSRFSGSGSGTDYTLTISSLQPEDFATYYCLQYDEFPPTFGQGTKLEIK
notes: humanized, human IgG1/kappa
On to B6, for which the binding result with hSEZ6-ECD-His [6] was “binds”.

B7: hSC17.17 (antibody, human IgG1, V domains shown)
VH: QVQLVQSGAEVKKPGASVKVSCKASGYTFTDYNMHWVRQAPGQGLEWMGEINPNIGGTGYNQKFKGRVTMTRDTSISTAYMELSRLRSDDTAVYYCARTYSYYSYEFAYWGQGTLVTVSS
VL: EIVLTQSPATLSLSPGERATLSCSASSSVSYMHWYQQKPGQAPRLLIYDTSKLPSGIPARFSGSGSGTDFTLTISSLEPEDFAVYYCQQWSSTPPTFGQGTKLEIK
notes: humanized, human IgG1/kappa
Turning to B7, the binding result with hSEZ6-ECD-His [6] is recorded as “binds”.

B8: hSC17.28 (antibody, human IgG1, V domains shown)
VH: QVQLVQSGAEVKKPGASVKVSCKASGYTFTRSYIHWVRQAPGQGLEWMGYISSGSGGTTYNQKFKGRVTSTRDTSISTAYMELSRLRSDDTAVYYCARGGVRYFDVWGQGTTVTVSS
VL: EIVLTQSPDFQSVTPKEKVTITCRASQSIGTSIHWYQQKPDQSPKLLIKYASESISGVPSRFSGSGSGTDFTLTINSLEAEDAATYYCQQSNSWPLTFGQGTKLEIK
notes: humanized, human IgG1/kappa
As to B8, the binding result in the experiment with hSEZ6-ECD-His [6] is “binds”.

B9: SC17.45 (antibody, V domains shown)
VH: QVQLQQPGSVLVRPGDSVKLSCKASGYTFTSYWMHWVKQSPGQGLEWIGEIHPHSGSTNYNEKFKGKATLTVDTSSSTAYVDLSSLTSEDSAVYYCVGGHYDYWGQGTTLTVSS
VL: ENVLTQSPAIMSASPGEKVTMTCSASSSVNYMYWYQQKSSTSPKLWIYDTSKLTSGVPGRFSGSGSGNSYSLTISNMEAEDVATYYCFQGSGYPLTFGSGTKLEIK
notes: murine mAb
Regarding B9, the binding result in the experiment with human SEZ6L ECD-His is listed as “no binding (tested: 1 µg/mL)”; with human SEZ6L2 ECD-His it was “no binding (tested: 1 µg/mL)”; in experiment [3], “no binding (tested: 5 µg/mL)”; in experiment [4], “no binding (tested: 5 µg/mL)”. The same molecule yielded a Kd with hSEZ6-ECD-His [5] of 17.4 nM.

B10: SC17.87 (antibody, V domains shown)
VH: EVQLQQSGAELLKPGASVKLSCTASGLNIKDYYIHWVYQRPEQGLEWIGRIDPESDNTLYDPKFQGKASITADTSSNTAYLQLSSLTSEDTAVYYCTTNTPFAYWGQGTLVTVST
VL: DVVMTQTPLSLPVSLGDQASISCRSSQSLVHSNGNTYLHWYLQKPGQSPKLLISKVSNRFSGVPDRFSGSGSGTDFTLKISRVEAEDLGVYFCSQSTHVPPMFGGGTRLEIK
notes: murine mAb
For the molecule B10, the binding result in experiment [1] is on record as “binds”.

B11: SC17.97 (antibody, V domains shown)
VH: QVQLPQSGAELAKPGASVKISCKASGFTFTSYWMHWVKQRPGQGLEWIGYINPSTDYTEYNQKFKDKATLTADKSSSTAYMQLGSLTSEDSAVYYCARSSYGSSPFDYWGQGSTLTVSS
VL: B10 VL with S32N, K50N, S54Y, R82I, V90L, P101R, M102T, R108K
notes: murine mAb
For the molecule B11, the binding result in experiment [1] is on record as “binds”.

B12: hSC17.16 (antibody, human IgG1, V domains shown)
VH: QVQLVQSGAEVKKPGASVKVSCKASGYTFTDYNMYWVRQAPGQGLEWMGEINPNNGGTAYNQKFRGKVTMTRDTSISTAYMELSRLRSDDTAVYYCARYDKGFDYWGQGTTVTVSS
VL: DIQMTQSPSSLSASVGDRVTITCRASANINSNLVWYQQKPGKAPKLLIYAATNLADGVPSRFSGSGSGTDFTLTISSLQPEDFATYYCQHFWGTPRTFGGGTKLEIK
notes: humanized; human IgG1 heavy and human kappa light constant regions
In the case of B12, the binding result with hSEZ6-ECD-His [6] is given as “binds”.
